# Article PMC11860134, “PET Imaging of CD206 Macrophages in Bleomycin-Induced Lung Injury Mouse Model” (Pharmaceutics, 2025)
# Key:
# [1] = test system: collagen I and III fibers; assay: Picro Sirius Red (PSR) staining of lung sections, ImageJ quantification; format: in vivo, mouse; details: lungs of BLM cohort given the tracer
# Procedure: Following PET/CT imaging, lungs from all cohorts (bleomycin-induced lung injury model administered with linear or cyclic [^68Ga]Ga-RP832c, healthy mice administered with linear or cyclic [^68Ga]Ga-RP832c, and mice not administered bleomycin) were collected and fixed in 10% formalin. After 48 h of fixation, the lungs were transferred to 70% ethanol and after an additional 24 h, samples were sent for preparation of tissue sections. Tissue sections were prepared by the UAB Pathology Core Research Laboratory, Birmingham, AL, USA. Subsequently, tissue sections were stained with CD206 (Mouse MMR/CD206 Antibody (20 µg/mL, Cat: AF2535, R&D, Minneapolis, MN, USA). The secondary antibody was the Rabbit anti-goat IgG (H+L) HRP (1:2000 dilution, Cat no: 81-1620, Invitrogen, Waltham MA, USA). Picro Sirius Red Staining was conducted using a commercial kit (Picro Sirius Red Stain Kit, ab150681, Abcam, Waltham, MA, USA). Collagen was stained in red while muscle fibers and cytoplasm were stained in yellow.
# Picro Sirius Red staining was carried out to detect collagens due to pulmonary fibrosis. The kit is intended for use in the histological visualization of collagen I and III fibers. Picro Sirius Red solution was applied to completely cover the tissue section and then the sample was incubated for 60 min. Slides were rinsed twice in acetic acid solution (0.5%). Slides were rinsed in absolute alcohol and dehydrated in 2 changes in absolute alcohol. The mounting media used was Permount™ Mounting Medium, Pittsburgh, PA, USA. CD206-, PSR-, and H&E-stained samples were imaged using EVOS™ M7000 Imaging System (Invitrogen, Waltham, MA, USA). For IHC semi-quantification, all slides were scored under a light microscope according to the degree of staining (0 points negative for staining, 1 point light yellow, 2 points light brown, and 3 points dark brown) and the range of positivity (1 points 0 to 25%, 2 points 26 to 50%, 3 points 51 to 75%, and 4 points 76 to 100%), and the final scores were summed for analysis.
# [2] = target: T1, murine CD206 (Recombinant mouse MMR/CD206 protein) (Mus musculus, UniProt Q61830); assay: CD206 plate binding assay; details: 1 µg CD206 per well, 2 µg (0.1 µCi) tracer, n = 10
# T1 construct: purchased R&D Systems
# T1 sequence (Q61830 19-1388 limits assumed): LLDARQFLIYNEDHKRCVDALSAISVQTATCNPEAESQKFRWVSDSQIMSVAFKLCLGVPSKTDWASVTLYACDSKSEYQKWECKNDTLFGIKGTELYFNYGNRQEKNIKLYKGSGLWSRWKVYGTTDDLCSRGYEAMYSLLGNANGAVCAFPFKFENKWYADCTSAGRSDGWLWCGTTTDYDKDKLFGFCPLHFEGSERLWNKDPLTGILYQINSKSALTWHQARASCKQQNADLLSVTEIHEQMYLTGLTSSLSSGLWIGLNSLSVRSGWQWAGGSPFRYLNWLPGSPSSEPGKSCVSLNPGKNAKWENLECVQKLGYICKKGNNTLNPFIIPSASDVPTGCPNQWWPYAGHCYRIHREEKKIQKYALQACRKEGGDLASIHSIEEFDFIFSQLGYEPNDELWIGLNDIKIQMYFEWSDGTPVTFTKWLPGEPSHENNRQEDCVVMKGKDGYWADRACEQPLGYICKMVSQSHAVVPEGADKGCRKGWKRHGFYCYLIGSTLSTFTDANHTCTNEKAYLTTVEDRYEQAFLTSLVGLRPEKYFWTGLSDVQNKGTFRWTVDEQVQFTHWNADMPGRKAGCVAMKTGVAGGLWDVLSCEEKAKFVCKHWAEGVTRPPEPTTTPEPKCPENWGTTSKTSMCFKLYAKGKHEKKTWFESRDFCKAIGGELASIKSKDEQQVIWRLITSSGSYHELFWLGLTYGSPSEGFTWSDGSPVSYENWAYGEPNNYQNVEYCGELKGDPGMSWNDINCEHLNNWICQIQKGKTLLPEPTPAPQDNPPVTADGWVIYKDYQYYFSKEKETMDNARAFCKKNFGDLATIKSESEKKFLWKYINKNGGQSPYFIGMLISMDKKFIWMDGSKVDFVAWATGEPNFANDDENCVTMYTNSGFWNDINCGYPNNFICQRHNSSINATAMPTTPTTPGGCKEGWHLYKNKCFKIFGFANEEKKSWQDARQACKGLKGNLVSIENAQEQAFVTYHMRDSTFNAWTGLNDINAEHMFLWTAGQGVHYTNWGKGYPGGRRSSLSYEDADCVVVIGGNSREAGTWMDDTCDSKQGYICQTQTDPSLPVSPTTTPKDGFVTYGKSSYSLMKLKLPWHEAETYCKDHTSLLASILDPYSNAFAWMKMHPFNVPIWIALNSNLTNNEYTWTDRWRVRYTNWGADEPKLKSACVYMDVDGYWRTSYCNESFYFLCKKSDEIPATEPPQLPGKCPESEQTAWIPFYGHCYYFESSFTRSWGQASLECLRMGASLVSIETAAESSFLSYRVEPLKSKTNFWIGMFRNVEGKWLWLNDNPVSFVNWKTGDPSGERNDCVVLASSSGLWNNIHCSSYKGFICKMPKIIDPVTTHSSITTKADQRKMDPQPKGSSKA
# Procedure: The affinity of linear and cyclic RP832c to murine CD206 (Recombinant mouse MMR/CD206 protein, R&D Systems, Minneapolis, MN, USA) protein was tested via plate binding study using blocking and non-blocking groups. 48 h before the experiment 1 µg of CD206 (in 0.1 mL 15 mM Na2CO3, 35 mM NaHCO3) was added to each well of 96-well flat bottom plate. The plate was kept at 4 °C for 48 h. On the day of the study, 5 µg (0.1 mL aqueous solution) of linear or cyclic RP832c was added to each well (n = 10) of each blocking group and was incubated at 37 °C for an hour. Then, 2 µg (0.1 µCi) of [^68Ga]RP832c was added to each well (n = 10 for each group) of both blocking and non-blocking groups. Both groups were incubated at 37 °C for an hour. Wells were rinsed with PBS (pH = 7) three times. Three wells were used as standards. Each well of the blocking and non-blocking groups and the standards were measured via the HIDEX gamma counter (Lablogic, Clair-Mel City, FL, USA). Data were decay corrected, and binding (%) values were calculated according to standards.
sequence,measurement,setting,value
RWKFGGFKWR [cyclic [^68Ga]Ga-RP832c],area % values for PSR staining (ImageJ),[1]; 1 week post bleomycin instillation,0.86 ± 0.44%
same,area % values for PSR staining (ImageJ),[1]; 2 weeks post bleomycin instillation,1.28 ± 1.06%
same,area % values for PSR staining (ImageJ),[1]; 3 weeks post bleomycin instillation,1.36 ± 0.75%
same,CD206 plate binding %,"[2]; blocking: 5 µg linear or cyclic RP832c, 37 °C 1 h before tracer",10.36 ± 0.44%
same,CD206 plate binding %,"[2]; non-blocking, 37 °C 1 h, gamma counter",37.60 ± 1.40%
